Measurements: PMC7966745, “Elucidation of transient protein-protein interactions within carrier protein-dependent biosynthesis” (Communications Biology, 2021)

T1: TesA, E. coli thioesterase (E. coli, UniProt P0ADA1 27-208)
T1 construct: TesA thioesterase 1, E. coli; the natural protein is periplasmic; source: E. coli BL21 (DE3), purified (Ni-IMAC, Superdex 75)
T1 sequence: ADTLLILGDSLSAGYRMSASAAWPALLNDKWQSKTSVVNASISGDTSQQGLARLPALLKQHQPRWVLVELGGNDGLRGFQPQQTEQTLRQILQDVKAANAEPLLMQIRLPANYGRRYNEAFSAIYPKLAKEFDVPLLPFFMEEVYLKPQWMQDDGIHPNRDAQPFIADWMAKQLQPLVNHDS

T2: FabF, E. coli elongating ketosynthase (E. coli, UniProt P0AAI5 2-413)
T2 construct: ketosynthase FabF (3-oxoacyl-ACP synthase 2), E. coli; also called KS; source: E. coli BL21 (DE3), purified (Ni-IMAC, Superdex 75)
T2 sequence: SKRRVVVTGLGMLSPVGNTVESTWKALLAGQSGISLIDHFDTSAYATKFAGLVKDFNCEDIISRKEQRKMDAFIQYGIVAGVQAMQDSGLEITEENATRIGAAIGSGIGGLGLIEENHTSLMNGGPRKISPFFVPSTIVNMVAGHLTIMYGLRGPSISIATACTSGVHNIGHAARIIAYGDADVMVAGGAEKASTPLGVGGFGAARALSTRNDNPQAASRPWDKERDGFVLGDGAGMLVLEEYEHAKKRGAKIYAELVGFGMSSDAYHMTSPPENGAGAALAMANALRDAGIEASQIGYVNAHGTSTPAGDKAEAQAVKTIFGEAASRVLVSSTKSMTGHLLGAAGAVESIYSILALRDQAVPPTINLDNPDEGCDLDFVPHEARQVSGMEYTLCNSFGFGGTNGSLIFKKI

T3: TesA, E. coli thioesterase (E. coli, UniProt P0ADA1 27-208)
T3 construct: thioesterase TesA (thioesterase 1), E. coli; source: E. coli BL21 (DE3), purified (Ni-IMAC, Superdex 75)
T3 sequence: T1 sequence

B1: FabG, ketoreductase of E. coli fatty acid biosynthesis (enzyme)
chain: MNFEGKIALVTGASRGIGRAIAETLAARGAKVIGTATSENGAQAISDYLGANGKGLMLNVTDPASIESVLEKIRAEFGEVDILVNNAGITRDNLLMRMKDEEWNDIIETNLSSVFRLSKAVMRAMMKKRHGRIITIGSVVGTMGNGGQANYAAAKAGLIGFSKSLAREVASRGITVNVVAPGFIETDMTRALSDDQRAGILAQVPAGRLGGAQEIANAVAFLASDEAAYITGETLHVNGGMYMV
notes: FabG 3-oxoacyl-ACP reductase, E. coli; titrated with 0.5 mM NAD+ in the buffer; also called KR; source: E. coli BL21 (DE3), purified (Ni-IMAC, Superdex 75)
B2: FabG, E. coli ketoreductase (enzyme)
chain: B1 chain
notes: ketoreductase FabG (3-oxoacyl-ACP reductase), E. coli; Titrated with 0.5 mM NAD+ present; also called KR; source: E. coli BL21 (DE3), purified (Ni-IMAC, Superdex 75)
B3: FabI, enoylreductase of E. coli fatty acid biosynthesis (enzyme)
chain: MGFLSGKRILVTGVASKLSIAYGIAQAMHREGAELAFTYQNDKLKGRVEEFAAQLGSDIVLQCDVAEDASIDTMFAELGKVWPKFDGFVHSIGFAPGDQLDGDYVNAVTREGFKIAHDISSYSFVAMAKACRSMLNPGSALLTLSYLGAERAIPNYNVMGLAKASLEANVRYMANAMGPEGVRVNAISAGPIRTLAASGIKDFRKMLAHCEAVTPIRRTVTIEDVGNSAAFLCSDLSAGISGEVVHVDGGFSIAAMNELELK
notes: FabI enoyl-ACP reductase, E. coli; titrated with 0.5 mM NAD+ in the buffer; also called ER; source: E. coli BL21 (DE3), purified (Ni-IMAC, Superdex 75)
B4: FabI, E. coli enoylreductase (enzyme)
chain: B3 chain
notes: enoylreductase FabI (enoyl-ACP reductase [NADH]), E. coli; Titrated with 0.5 mM NAD+ present; also called ER; source: E. coli BL21 (DE3), purified (Ni-IMAC, Superdex 75)
B5: octanoyl-AcpP (15N-C8-AcpP), E. coli acyl carrier protein (natural protein)
chain: STIEERVKKIIGEQLGVKQEEVTNNASFVEDLGADSLDTVELVMALEEEFDTEIPDEEAEKITTVQAAIDYINGHQA
modifications: octanoyl pantethenamide probe loaded as a 4'-phosphopantetheine analog (amide linked octanoyl) on S36; uniformly 15N labeled and perdeuterated
notes: Acyl carrier protein AcpP of E. coli; Grown on a His-tagged pET-22b vector; also called amide linked octanoyl AcpP; source: E. coli BL21 (DE3), M9 minimal media with 15N NH4Cl and D2O, purified; made apo with ACPH, then loaded with an octanoyl pantethenamide probe (CoaA, CoaD, CoaE, Sfp)
B6: octanoyl-AcpP (C8-AcpP), E. coli acyl carrier protein (natural protein)
chain: B5 chain
modifications: octanoyl pantethenamide probe loaded (stable C8 acyl analog); uniformly 15N labeled and perdeuterated
notes: acyl carrier protein AcpP, E. coli; PDB 2FAD is heptanoyl-AcpP, used for docking only; also called 15N-C8-AcpP; source: E. coli BL21 (DE3), M9 minimal media with 15N NH4Cl and D2O, purified; made apo with P. aeruginosa ACPH, then loaded with CoaA, CoaD, CoaE and Sfp
B7: FabF, elongating ketosynthase of E. coli fatty acid biosynthesis (enzyme)
chain: T2 sequence
notes: FabF ketosynthase (3-oxoacyl-ACP synthase 2), E. coli; also called KS; source: E. coli BL21 (DE3), purified (Ni-IMAC, Superdex 75)

Experiments:
FabB (Escherichia coli) = FabB (Escherichia coli) (UniProt P0A953); assay: NMR titration (TITAN); conditions: cited from earlier work
[1] = target: B5; assay: NMR titration; 1H-15N HSQC of perdeuterated 15N-C8-AcpP with increasing unlabeled partner protein, five points; TITAN 2D lineshape analysis, flexible stoichiometry model, error from 300 bootstrap steps; 37 °C, 10 mM potassium phosphate pH 7.4, 0.5 mM TCEP, 0.5 mM NAD+, 0.1% NaN3; conditions: both partners purified
[2] = target: B6; assay: NMR titration; 1H-15N HSQC of 15N, perdeuterated C8-AcpP titrated with unlabeled partner, at least five points; 37 °C; 10 mM potassium phosphate pH 7.4, 0.5 mM TCEP, 0.5 mM NAD+, 0.1% NaN3; TITAN 2D lineshape analysis, flexible stoichiometry model; conditions: both partners purified
[3] = target: B7; assay: NMR titration; 1H-15N HSQC of perdeuterated 15N-C8-AcpP with increasing unlabeled partner protein, five points; TITAN 2D lineshape analysis, flexible stoichiometry model, error from 300 bootstrap steps; 37 °C, 10 mM potassium phosphate pH 7.4, 0.5 mM TCEP, 0.1% NaN3; conditions: both partners purified
[4] = target: T1, TesA, E. coli thioesterase; assay: as above; conditions: both partners purified
[5] = target: B3; assay: NMR titration; 1H-15N HSQC of perdeuterated 15N-C8-AcpP with increasing unlabeled partner protein, five points; TITAN 2D lineshape analysis, flexible stoichiometry model, error from 300 bootstrap steps; 37 °C, 10 mM potassium phosphate pH 7.4, 0.5 mM TCEP, 0.5 mM NAD+, 0.1% NaN3; conditions: both partners purified
[6] = target: T2, FabF, E. coli elongating ketosynthase; assay: NMR titration; 1H-15N HSQC of 15N, perdeuterated C8-AcpP titrated with unlabeled partner, at least five points; 37 °C; 10 mM potassium phosphate pH 7.4, 0.5 mM TCEP, 0.1% NaN3; TITAN 2D lineshape analysis, flexible stoichiometry model; conditions: both partners purified
[7] = target: T3, TesA, E. coli thioesterase; assay: as above; conditions: both partners purified
[8] = target: B2; assay: NMR titration; 1H-15N HSQC of 15N, perdeuterated C8-AcpP titrated with unlabeled partner, at least five points; 37 °C; 10 mM potassium phosphate pH 7.4, 0.5 mM TCEP, 0.5 mM NAD+, 0.1% NaN3; TITAN 2D lineshape analysis, flexible stoichiometry model; conditions: both partners purified
[9] = target: B4; assay: as above; conditions: both partners purified
[10] = target: B5; assay: NMR titration; 1H-15N HSQC of perdeuterated 15N-C8-AcpP with increasing unlabeled partner protein, five points; TITAN 2D lineshape analysis, flexible stoichiometry model, error from 300 bootstrap steps; 37 °C, 10 mM potassium phosphate pH 7.4, 0.5 mM TCEP, 0.1% NaN3; conditions: both partners purified

FabB (Escherichia coli), sequence (P0A953 whole entry): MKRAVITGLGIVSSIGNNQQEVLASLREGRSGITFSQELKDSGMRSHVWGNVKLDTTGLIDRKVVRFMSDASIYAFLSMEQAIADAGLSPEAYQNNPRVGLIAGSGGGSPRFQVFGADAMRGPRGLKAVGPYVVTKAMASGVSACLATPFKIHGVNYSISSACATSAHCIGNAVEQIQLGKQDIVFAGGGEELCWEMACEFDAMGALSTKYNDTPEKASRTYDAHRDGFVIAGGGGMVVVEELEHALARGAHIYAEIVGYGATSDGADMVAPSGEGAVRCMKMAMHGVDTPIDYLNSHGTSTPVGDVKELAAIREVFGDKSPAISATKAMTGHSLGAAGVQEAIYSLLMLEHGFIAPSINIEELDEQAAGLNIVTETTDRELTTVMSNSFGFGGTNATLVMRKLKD

AcpP (from UniProt P0A6A8)
Kd (FabB (Escherichia coli)): 37.6 µM

B1
stoichiometry N [1]: 2.2

B2
stoichiometry N [2]: 2

B3
stoichiometry N [1]: 1.2

B4
stoichiometry N [2]: ~1

B5
Kd [3]: 6.9 µM | koff [3]: 3350 s⁻¹ | Kd [4]: 13 µM | koff [4]: 9750 s⁻¹ | Kd [5]: 1600 nM | koff [5]: 6360 s⁻¹

B6
Kd [6]: 8.3 µM | koff [6]: 3510 s⁻¹ | Kd [7]: 12.5 µM | koff [7]: 9720 s⁻¹ | Kd [8]: 52.3 µM | koff [8]: 3560 s⁻¹ | Kd [9]: 1700 nM | koff [9]: 8500 s⁻¹

B7
stoichiometry N [10]: 1.3
